The values that follow come from patent publication US20110293511A1, “SPECIFIC BINDING PROTEINS AND USES THEREOF” (priority 2009, published 2011).

“And” between values parts separate entries of the source, which are not always exact repeats. Equal values may be shown once. “Also recorded” adds a separate entry of the source. Marks after values point to notes of the source that are not given here.

One assay deals with A431 xenografts. The assay can be described thus: s.c. xenograft therapy study. To be noted: for mean tumor volume: day 13, 1 mg injection. It is filed as in vivo, nude mice. Here is the method: Tumor cells (3×10^6) in […] of PBS were inoculated subcutaneously into both flanks of 4-6 week old female nude mice (Animal Research Centre, Western Australia, Australia). […] Treatment was continued for a total of 6 doses, 3 times per week for 2 weeks. In the established model, treatment was started when tumors had reached a mean volume of 65±6.42 mm^3 (U87MG.Δ2-7), 84±9.07 mm3 (U87MG), 73±7.5 mm^3 (U87MG.wtEGFR) or 201±19.09 mm^3 (A431 tumors). Tumor volume in mm^3 was determined using the formula […], where length was the longest axis and width the measurement at right angles to the length (Clark et al. (2000) Therapeutic efficacy of anti-Lewis (y) humanized 3S 193 radioimmunotherapy in a breast cancer model: enhanced activity when combined with Taxol chemotherapy. Clin. Cancer Res. 6, 3621-3628). Data was expressed as mean tumor volume±S.E. for each treatment group. Statistical analysis was performed at given time points using Student's t-test. Animals were euthanized when the xenografts reached an approximate volume of 1.5 cm^3 and the tumors excised for histological examination. This research project was approved by the Animal Ethics Committee of the Austin and Repatriation Medical Centre.
AG1478 (4-(3-Chloroanilino)-6,7-dimethoxyquinazoline) is a potent and selective inhibitor of the EGFR kinase versus HER2-neu and platelet-derived growth factor receptor kinase (Calbiochem Cat. No. 658552). […] The results are illustrated in FIG. 12. […] 400 μg AG1478 was administered at 0, 2, 4, 7, 9, and 11 days post xenograft.
With respect to “(iv),” different groups of mice received either 0.5 mg/injection of each mAb, or 0.25 mg/injection of each mAb.
Finally, the fourth group of mice, which had been inoculated with A431 cells, received injections as in groups I and III, at 8, 10, 12 and 14 days after inoculation. At the start, the average tumor size was 71 mm^3.
To establish xenografts, mice were injected subcutaneously into the right and left inguinal mammary line with 1×10^6 A431 adenocarcinoma cells or 1×10^6 U87MG.de2-7 glioma cells in 100 μl of PBS. Tumor volume (TV) was calculated by the formula […] where length was the longest axis and width the measurement at right angles to length. […] Therapy was administered on days 6, 8, 11, 13, 15 and 18 for A431, and days 4, 6, 8, 11, 13 and 15 for the U87MG.de2-7 cell lines respectively. Mean±SEM tumor volumes until termination of the experiments due to ethical considerations of tumor burden are presented in FIG. 91 for the A431 xenograft until day 25, and in FIG. 92 for U87MG.de2-7 xenografts until day 31.

Assay [1] concerns the target T1, Peptide C (C-terminal biotinylated de2-7 peptide) (Homo sapiens, UniProt P00533, DELINS30-297G).
T1 construct: purchased Biosource, Camarillo, Calif
The assay can be described thus: BIAcore with immobilized Peptide C. Type of assay: binding. To be noted: mAbL8A4 even at 6.25 nM, mAb806 up to 100 nM. Here is the method:
Peptide C was immobilized on a Streptavidin microsensor chip at a surface density of 350RU (+/−30RU). Serial dilutions of mAbs were tested for reactivity with the peptide. Blocking experiments using non-biotinylated peptide were performed to assess specificity.

Another assay relates to DU145 cells. As to the kind of experiment: FACS analysis. It is filed as binding, human. From the text:
Clearly, mAb806 and mAb175 can recognize only a small proportion of the EGFR on cells in the presence of an autocrine stimulation loop.

The target in assay [2] is T2, denatured soluble domain of the EGFR (sEGFR) (Homo sapiens, UniProt P00533).
T2 construct: sEGFR is the recombinant extracellular domain (amino acids 1-621) of the wild-type EGFR); host or cells: CHO cells
As to the kind of experiment: competition ELISA with biotinylated mAb806. The following applies: after unlabeled blocking antibody. It is filed as binding. Here is the method: Briefly, the denatured soluble domain of the EGFR (sEGFR) was coated on to ELISA plates. The unlabeled 124 or 1133 antibodies were then added across the plate in increasing concentrations.

The target in assay [3] is T3, EGFR from U87MG.wtEGFR and A431 cells (Homo sapiens, UniProt P00533).
T3 construct: endogenous in cells; host or cells: A431 (endogenous, amplified gene) and U87MG.wtEGFR (U87MG transfected with wtEGFR)
As to the kind of experiment: immunoprecipitation and Endo H digestion. It is filed as binding. To be noted: majority / bulk of the material. As to the method:
This possibility was tested by immunoprecipitating the EGFR from different cells lines labelled overnight with ^35S methionine/cysteine and then subjecting the resultant precipitates to Endoglycosidase H (Endo H) digestion. This enzyme preferentially removes high mannose type carbohydrates (i.e. immature glycosylation) from proteins while leaving complex carbohydrates (i.e. mature glycosylation) intact.

The test system of assay [4] is panel of 12 different malignancies. As to the kind of experiment: immunohistochemistry of tumor panel. Type of assay: binding, human. Here is the method:
Immunohistochemical analysis was performed using […] sections of fresh frozen tissue applied to histology slides and fixed for 10 minutes in cold acetone. Bound primary antibody was detected with biotinylated horse anti-mouse antibody followed by an avidin-biotin-complex reaction. Diaminobenzidine tetrahydrochloride (DAB) was used as chromogen. The extent of the immunohistochemical reactivity in tissues was estimated by light microscopy and graded according to the number of immunoreactive cells in 25% increments as follows:
The extent of de2-7 EGFR in other tumor types was examined using a panel of 12 different malignancies. […] This staining was strongly dependent on antibody concentration used and was considered nonspecific background reactivity.

Assay [5] deals with T4, biotinylated de2-7 specific peptide (Homo sapiens, UniProt P00533, DELINS30-297G).
T4 construct: purchased Auspep, Melbourne, Australia; host or cells: chemical synthesis (Fmoc)
As to the kind of experiment: ELISA on de2-7 junctional peptide. It is filed as binding. The text has this:
In the second assay, the biotinylated de2-7 specific peptide (Biotin […] (SEQ ID NO:5)) was bound to ELISA plates precoated with streptavidin (Pierce, Rockford, Ill.). Antibodies were bound and detected as in the first assay.

B1: mAb806: murine IgG2b monoclonal antibody, clone 806, ATCC PTA-3858; VH SEQ ID NO:2, VL SEQ ID NO:4 (antibody, listed as Mus musculus, V domains shown)
VH: MRVLILLWLFTAFPGVLSDVQLQESGPSLVKPSQSLSLTCTVTGYSITSDFAWNWIRQFPGNKLEWMGYISYSGNTRYNPSLKSRISITRDTSKNQFFLQLNSVTIEDTATYYCVTAGRGFPYWGQGTLVTVSA
VL: MVSTAQFLAFLLLWFPGARCDILMTQSPSSMSVSLGDTVSITCHSSQDINSNIGWLQQRPGKSFKGLIYHGTNLDDEVPSRFSGSGSGADYSLTISSLESEDFADYYCVQYAQFPWTFGGGTKLEIKR
Take B1: the mean tumor volume is 451±65.58 mm^3 and 450±70 mm^3 with A431 xenografts (established model); 260±60.33 mm^3 and 260±60 mm^3 with A431 xenografts (preventative model). Also, the “effect on xenograft growth” value with A431 xenografts (preventative model, 0.1 mg) is on record as “significantly inhibited; also recorded: inhibited significantly”. Moreover, in the assay on A431 xenografts (preventative model, 0.1 mg mAb806, 400 μg AG1478), the “reduction of tumor volume” value was “significant reduction of tumor volume”. In assay [1], the “reactivity with Peptide C” value is “did not show detectable specific reactivity”. The “binding by FACS” value in the assay with DU145 cells is reported as “bind”. For the same molecule, the “Binding of biotin-labeled 806” value in assay [2] is “None”. Moreover, the “Endo H sensitivity of the precipitated EGFR” value in assay [3] is “sensitive to Endo H”. Further, the “positive tumors / tumors tested” value in assay [4] (Colonic carcinoma) was 0/10; in assay [4] (Head + neck cancer (sqcc)) it was 7/11; in assay [4] (Leiomyosarcoma), 0/5; in assay [4] (Liposarcoma), 0/5*; in assay [4] (Lung (sqcc, adeno, neuroend)), 6/12; in assay [4] (Malignant melanoma metastases), 0/10. The “positive tumors / tumors tested” value is on record as 1/10 in assay [4] (Mammary gland); 0/5* in assay [4] (Mfh Malignant fibrous histiocytoma); 0/5 in assay [4] (Ovary (serous-papillary)); 0/10 in assay [4] (Seminoma); 0/5* in assay [4] (Synovial sarcoma); 3/10* in assay [4] (Urinary bladder (tcc, sqcc, adeno)). In addition, the “tumors with positive staining” value in assay [4] (head and neck tumors) is recorded as 64%; in assay [4] (lung carcinomas) it was 50%; in assay [4] (urinary tumors), 30%. For the same molecule, the “binding to the unique de2-7 EGFR peptide” value in assay [5] is reported as “Neither mAb806 or the 528 antibody bound to the peptide”.
